Data on two substances can be found in PMC12547689.

The target of assay [1] is GFP-diS2 (sfGFP H148C V206F) (Aequorea victoria) [GFP: P42212]. Briefly: fluorescence emission ratio (CRO–O^− : CRO–OH excitation); dimerisation kinetics with 1 mM CuSO4, 50 mM Tris–HCl pH 8, plate reader, excitation 388 nm and 483 nm, emission 516 nm; second order A + A → A2; apparent KD, estimated, non-equilibrium (covalent disulphide dimer); monomer to dimer.
Assay [2] has the same target. Briefly: fluorescence emission ratio (CRO–O^− : CRO–OH excitation); percentage of dimer after incubation with CuSO4 (1 mM; CuCl2 gave no discernible change for GFP-diS2), 50 mM Tris–HCl pH 8; monomer to disulphide-linked dimer.
Assay [3] deals with GFP-diS1 (sfGFP H148C) (Aequorea victoria) [GFP: P42212]. In words: fluorescence emission ratio (CRO–O^− : CRO–OH excitation); dimerisation kinetics with 1 mM CuSO4, 50 mM Tris–HCl pH 8, plate reader, excitation 388 nm and 483 nm, emission 516 nm; second order A + A → A2; apparent KD, estimated, non-equilibrium (covalent disulphide dimer); monomer to dimer.
Assay [4] has the same target. Briefly: fluorescence emission ratio (CRO–O^− : CRO–OH excitation); percentage of dimer after incubation with CuSO4 (1 mM; CuCl2 gave no discernible change for GFP-diS2), 50 mM Tris–HCl pH 8; monomer to disulphide-linked dimer.

“GFP-diS2 (sfGFP H148C V206F) (from UniProt P42212 1-238)”: the Kd in assay [1] was 4.6 µM. Also, the percent dimer with CuSO4 in assay [2] worked out at 80%.

Turning to “GFP-diS1 (sfGFP H148C) (from UniProt P42212 1-238)”, the Kd in assay [3] was above 25 µM. Besides, the percent dimer after 1 h with CuSO4 in assay [4] was determined as 55%.
